Results from patent publication US20220049002A1 (KINDRED BIOSCIENCES, published 2022).

How the values were obtained:
[1] = molecular target: Canine IL4R-ECD_C-HuFc_His6 (processed) (canine); test: BLI (Octet): canine IL4R-ECD_C-HuFc_His6 on anti-human Fc tips
Experimental: An alternative binding assay was performed also using an Octet Biosensor. Canine IL4R-ECD_C-HuFc_His6 (SEQ ID NO: 109) was captured on anti-human Fc-bound sensor tips. The association of either Clone B or I antibody and canine IL4R-ECD_C-HuFc_His6 was monitored for 600 seconds. Dissociation was monitored for 600 seconds. The buffer for dilutions and all binding steps was 20 mM phosphate, 150 mM NaCl, pH 7.2. […] In addition, amine conjugation may affect the affinity of canine IL4R-ECD_C-His6 to interact with Clone B and I antibodies.

[2] = molecular target: T1, Canine IL4R-ECD_C-His6 (processed) (canine, biotinylated through amine chemistry in the ELISA and Octet assays); test: BLI (Octet): biotinylated canine IL4R-ECD_C-His6 on streptavidin tips, 1:1 model
T1 chain: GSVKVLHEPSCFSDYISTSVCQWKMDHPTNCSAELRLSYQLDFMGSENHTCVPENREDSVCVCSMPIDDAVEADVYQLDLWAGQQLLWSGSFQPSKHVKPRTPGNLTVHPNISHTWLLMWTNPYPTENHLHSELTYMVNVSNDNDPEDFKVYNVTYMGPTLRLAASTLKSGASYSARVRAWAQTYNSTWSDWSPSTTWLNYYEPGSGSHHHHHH
Experimental: The binding analysis was performed using an Octet Biosensor as follows. Briefly, canine IL4R-ECD_C-His6 (SEQ ID NO: 107) was biotinylated through amine chemistry. The free unreacted biotin was removed by extensive dialysis. Biotinylated canine IL4R-ECD_C-His6 was captured on streptavidin sensor tips. The association of either Clone B or I antibody and canine IL4R-ECD_C-His6 (25 μg/mL) was monitored for 600 seconds. Dissociation was monitored for 600 seconds. A buffer only blank curve was subtracted to correct for any drift. The data were fit to a 1:1 binding model using ForteBio™ data analysis software to determine the kₒₙ, koff, and the Kd. The buffer for dilutions and all binding steps was 20 mM phosphate, 150 mM NaCl, pH 7.2.

[3] = molecular target: Canine IL4R-ECD_C-HuFc_His6 (processed) (canine); test: Western blot
[4] = molecular target: Human IL4R-ECD_C-HuFc_His6 (processed) (human); test: Western blot
Sequence of Human IL4R-ECD_C-HuFc_His6 (processed) (human) (chain, as listed by the source limits assumed): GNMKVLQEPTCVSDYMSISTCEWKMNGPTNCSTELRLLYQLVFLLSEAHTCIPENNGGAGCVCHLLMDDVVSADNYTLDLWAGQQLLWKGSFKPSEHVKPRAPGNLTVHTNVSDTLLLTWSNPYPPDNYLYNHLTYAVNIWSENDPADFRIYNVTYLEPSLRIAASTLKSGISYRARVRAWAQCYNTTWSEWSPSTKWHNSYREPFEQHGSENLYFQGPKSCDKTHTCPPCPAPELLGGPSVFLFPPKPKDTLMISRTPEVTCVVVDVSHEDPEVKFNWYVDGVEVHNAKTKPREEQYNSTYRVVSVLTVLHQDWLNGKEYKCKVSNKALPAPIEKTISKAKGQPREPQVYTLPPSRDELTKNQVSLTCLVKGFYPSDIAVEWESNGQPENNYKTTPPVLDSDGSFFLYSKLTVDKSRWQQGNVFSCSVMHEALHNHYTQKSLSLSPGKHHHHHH

[5] = molecular target: T2, Canine IL4R (extracellular domains produced by 293 cells; Examples 16-19) (canine, biotinylated); test: BLI (ForteBio OctetRed): biotinylated canine IL4R on streptavidin tip
T2 construct: also called biotinylated canine IL4R
T2 chain: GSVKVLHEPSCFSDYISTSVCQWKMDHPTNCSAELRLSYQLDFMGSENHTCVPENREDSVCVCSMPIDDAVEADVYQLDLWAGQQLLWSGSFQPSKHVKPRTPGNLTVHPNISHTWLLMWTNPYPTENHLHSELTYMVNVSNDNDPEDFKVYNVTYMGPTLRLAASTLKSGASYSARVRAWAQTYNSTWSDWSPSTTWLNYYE
Experimental: The four mouse antibodies were purified from the hybridoma cell cultures and their affinities to canine IL4R were measured using biosensor (ForteBio OctetRed). Biotinylated canine IL4R was bound to the streptavidin sensor tip. The Kds of the 4 candidates were all less than 10 nM.

[6] = molecular target: T2, Canine IL4R (extracellular domains …); test: BLI (ForteBio OctetRed)
From the text: DNA sequences encoding a chimeric antibody were designed for a fusion of murine VH and murine VL to canine constant heavy chain IgG-B and canine constant light chain (kappa). The nucleotide sequences were synthesized chemically and inserted into an expression vector suitable for transfection into a CHO host cell. After transfection into CHO cells, the light chain or heavy chain protein or both were secreted from the cell. All four chimeric canine IgG-B were purified by single step Protein A column chromatography.

[7] = molecular target: T2, Canine IL4R (extracellular domains …); test: method not stated (binding affinity to canine IL4R)

| Binder | Kd [5] | Kd [6] | Kd [7] | also measured |
| --- | --- | --- | --- | --- |
| Clone B antibody (mouse monoclonal anti-canine IL4R) (antibody, mouse IgG1, kappa, V domains shown, Mouse IgG; also called anti-IL4R-mAb Clone B) VH: EVKLEESGPELVKPGASVKMSCKASGYTFTSYVMHWVKQKPGQGLEWIGYINPKNDGTFYNGKFKGKATLTSDKSSSTAYMELSSLTSEDSAVYYCAAFNYGIAYWGQGTLVTVSS VL: IVLTQTPSSLSASLGERVSLTCRASQEISGYLSWLQQKPDGTIKRLIYAASTLDSGVPKRFSGSRSGSDFSLTISSLESEDFADYYCVQYASYPWTFGGGARLEIKR |  |  |  | Kd [1]: ~0.1 nM; Kd [2]: 2.03 nM |
| M3 mouse monoclonal antibody (anti-canine IL4R) (antibody, V domains shown, Mouse antibody purified from hybridoma culture; also called Clone M3) VH: QVQLKESGPGLVAPSQSLSITCTVSGFSLSRYSVHWVRQPPGKGLEWLGMIWGGGSTDYNSVFKSRLSISKDNSKSQVFLKMNSLQTDDTAMYYCARTYRGYALDYWGQGTSVTVSS VL: DIQMTQTTSSLSASLGDRVTISCRASQDISNYLNWYQQKPDGTVKLLIYYTSRLQSGVPSRFSGSGSGTDYCLTISNLEQEDIATYFCQQANTLPLTFGSGTKLELK | < 10 nM |  |  | binding result [3]: binds; binding result [4]: no binding |
| M5 mouse monoclonal antibody (anti-canine IL4R) (antibody, V domains shown, Mouse antibody purified from hybridoma culture; also called Clone M5) VH: QVQLKESGPGLVAPSQSLSITCTVSGFSLSRYSVHWVRQPPGKGLEWLGMIWGGGSTDYNSVFKSRLSISKDNSKSQVFLKMNSLQTDDTAMYYCARTYRGYALDYWGQGTSVTVSS VL: DIQMTQTTSSLSASLGDRVTISCRASQDISNYLNWYQQKPDGTVKLLIYYTSRLQSGVPSRFSGSGSGTDYCLTISNLEQEDIATYFCQQANTLPLTFGSGTKLELK | < 10 nM |  |  |  |
| M8 mouse monoclonal antibody (anti-canine IL4R) (antibody, V domains shown, Mouse antibody purified from hybridoma culture; also called Clone M8) VH: QVQLQQSGPELVKPGALVKISCKASGYTFTSYDINWVKQRPGQGLEWIGWIYPGDGSTKYNEKFKGKATLTADKSSSTAYMQLSSLTSEDSAVYFCARSSFVVWGAGTTVTVSS VL: DIQMTQSSSYLSVSLGGRVTITCKASDPINNWLAWYQQKPGNAPRLLISGATSLETGVPSRISGSGSGKDYSLSITSLQTEDIATYYCHQYWSIPYTFGGGTKLEIK | < 10 nM |  |  | binding result [3]: binds; binding result [4]: no binding |
| M9 mouse monoclonal antibody (anti-canine IL4R) (antibody, V domains shown, Mouse antibody purified from hybridoma culture; also called Clone M9) VH: DVQLVESGGGLVQPGGSRKLSCAASGFTFSSFGMHWVRQAPEKGLEWVAYIRSDSSTIYYADTVKGRFTISRDNPKNTLFLQMTSLRSEDTAMYYCARSGYYGSFSLTYWGQGTLVTVSA VL: EIVLTQSPTTMAASPGEKITITCSASSSVSSNYLHWYQQKPGFSPKLLIYRTSNLPSGVPARFFGSGSGTSYSLTIGTMEAEDVATYYCQQGSGMLTFGAGTKLELK | < 10 nM |  |  | binding result [3]: binds; binding result [4]: no binding |
| Murine-canine chimeric M3 antibody (canine IgG-B, canine kappa) (antibody, V domains shown, Murine VH and VL fused to canine constant heavy chain IgG-B and canine constant light chain (kappa); also called chimeric canine IgG-B (M3)) VH: QVQLKESGPGLVAPSQSLSITCTVSGFSLSRYSVHWVRQPPGKGLEWLGMIWGGGSTDYNSVFKSRLSISKDNSKSQVFLKMNSLQTDDTAMYYCARTYRGYALDYWGQGTSVTVSS VL: DIQMTQTTSSLSASLGDRVTISCRASQDISNYLNWYQQKPDGTVKLLIYYTSRLQSGVPSRFSGSGSGTDYCLTISNLEQEDIATYFCQQANTLPLTFGSGTKLELK |  | < 10 nM |  |  |
| Murine-canine chimeric M5 antibody (canine IgG-B, canine kappa) (antibody, V domains shown, Murine VH and VL fused to canine constant heavy chain IgG-B and canine constant light chain (kappa); also called chimeric canine IgG-B (M5)) VH: QVQLKESGPGLVAPSQSLSITCTVSGFSLSRYSVHWVRQPPGKGLEWLGMIWGGGSTDYNSVFKSRLSISKDNSKSQVFLKMNSLQTDDTAMYYCARTYRGYALDYWGQGTSVTVSS VL: DIQMTQTTSSLSASLGDRVTISCRASQDISNYLNWYQQKPDGTVKLLIYYTSRLQSGVPSRFSGSGSGTDYCLTISNLEQEDIATYFCQQANTLPLTFGSGTKLELK |  | < 10 nM |  |  |
| Murine-canine chimeric M8 antibody (canine IgG-B, canine kappa) (antibody, V domains shown, Murine VH and VL fused to canine constant heavy chain IgG-B and canine constant light chain (kappa); also called chimeric canine IgG-B (M8)) VH: QVQLQQSGPELVKPGALVKISCKASGYTFTSYDINWVKQRPGQGLEWIGWIYPGDGSTKYNEKFKGKATLTADKSSSTAYMQLSSLTSEDSAVYFCARSSFVVWGAGTTVTVSS VL: DIQMTQSSSYLSVSLGGRVTITCKASDPINNWLAWYQQKPGNAPRLLISGATSLETGVPSRISGSGSGKDYSLSITSLQTEDIATYYCHQYWSIPYTFGGGTKLEIK |  | < 10 nM |  |  |
| Murine-canine chimeric M9 antibody (canine IgG-B, canine kappa) (antibody, V domains shown, Murine VH and VL fused to canine constant heavy chain IgG-B and canine constant light chain (kappa); also called chimeric canine IgG-B (M9)) VH: DVQLVESGGGLVQPGGSRKLSCAASGFTFSSFGMHWVRQAPEKGLEWVAYIRSDSSTIYYADTVKGRFTISRDNPKNTLFLQMTSLRSEDTAMYYCARSGYYGSFSLTYWGQGTLVTVSA VL: EIVLTQSPTTMAASPGEKITITCSASSSVSSNYLHWYQQKPGFSPKLLIYRTSNLPSGVPARFFGSGSGTSYSLTIGTMEAEDVATYYCQQGSGMLTFGAGTKLELK |  | < 10 nM |  |  |
| Caninized Clone M3 antibody, variable HC v1 / variable LC v1 (variant canine IgG-B C1q-, CD16-; canine kappa) (antibody, V domains shown, also called caninized M3 (HC v1)) VH: EVQLVESGGDLVKPAGSLRLSCTVSGFSLSRYSVHWVRQAPGKGLEWLGMIWGGGSTDYNSVVKGRFTISRDNAKNTVYLQMNSLRAEDTAMYYCARTYRGYALDYWGQGTLVTVSS VL: DIVMTQTPLSLSVSPGEPASISCRASQDISNYLNWYLQKAGQSPRLLIYYTSRLQSGVPDRFSGSGSGTDFTLRIGRVEAEDAGIYFCQQANTLPLTFGQGTRLEVRR |  |  | ≤ 1 nM |  |
| Caninized Clone M3 antibody, variable HC v2 / variable LC v1 (variant canine IgG-B C1q-, CD16-; canine kappa) (antibody, V domains shown, also called caninized M3 (HC v2)) VH: ELTLQESGPGLVKPSQTLSLTCTVSGFSLSRYSVHWIRQPRGRGLELLGMIWGGGSTDYNPAFQGRISITADTAKNQFSLQLSSMTTEDTAVYYCARTYRGYALDYWGQGTLVTVSS VL: DIVMTQTPLSLSVSPGEPASISCRASQDISNYLNWYLQKAGQSPRLLIYYTSRLQSGVPDRFSGSGSGTDFTLRIGRVEAEDAGIYFCQQANTLPLTFGQGTRLEVRR |  |  | ≤ 1 nM |  |
| Caninized Clone M9 antibody, variable HC v1 / variable LC v1 (variant canine IgG-B C1q-, CD16-; canine kappa) (antibody, V domains shown, also called caninized M9 (HC v1)) VH: EVQLVESGGDLVKPGGSLRLSCAASGFTFSSFGMHWVRQAPGKGLEWVAYIRSDSSTIYYADAVKGRFTISRDNAKNTLYLQMNSLRAEDTAMYYCARSGYYGSFSLTYWGQGTLVTVSS VL: DIMLTQTPLSLSVSPGEPASISCSASSSVSSNYLHWYLQKAGQSPRLLIYRTSNLPSGVPDRFSGSGSGTDFTLRIGRVEAEDAGIYYCQQGSGMLTFGQGTRLEVRR |  |  | ≤ 1 nM |  |
| Caninized Clone M9 antibody, variable HC v2 / variable LC v1 (variant canine IgG-B C1q-, CD16-; canine kappa) (antibody, V domains shown, also called caninized M9 (HC v2)) VH: EVQLVESGGDLVKPGGSLRLSCVASGFTFSSFGMHWVRQAPGKGLQWVAYIRSDSSTIYYADAVKGRFTISRDNAKNTLYLQMNSLRAEDTAMYYCARSGYYGSFSLTYWGQGTLVTVSS VL: DIMLTQTPLSLSVSPGEPASISCSASSSVSSNYLHWYLQKAGQSPRLLIYRTSNLPSGVPDRFSGSGSGTDFTLRIGRVEAEDAGIYYCQQGSGMLTFGQGTRLEVRR |  |  | ≤ 1 nM |  |
